In publication PMC5430726 (2017):

Biological target: T1, SLP65 peptide (Homo sapiens, UniProt Q8WV28)
T1 chain: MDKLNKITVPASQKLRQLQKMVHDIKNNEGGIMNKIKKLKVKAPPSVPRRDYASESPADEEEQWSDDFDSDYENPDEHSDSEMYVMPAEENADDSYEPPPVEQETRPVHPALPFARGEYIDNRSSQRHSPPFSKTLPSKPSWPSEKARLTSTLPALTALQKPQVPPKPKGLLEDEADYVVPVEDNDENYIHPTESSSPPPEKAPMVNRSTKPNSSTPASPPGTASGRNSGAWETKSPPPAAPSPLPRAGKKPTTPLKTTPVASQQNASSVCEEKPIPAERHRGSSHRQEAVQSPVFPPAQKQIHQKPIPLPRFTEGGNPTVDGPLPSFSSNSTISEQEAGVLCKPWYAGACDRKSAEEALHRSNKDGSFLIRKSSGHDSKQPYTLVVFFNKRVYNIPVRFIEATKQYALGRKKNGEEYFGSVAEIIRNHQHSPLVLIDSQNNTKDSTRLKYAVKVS
Experiment: ITC

B1: Grb2 SH3C (protein)
chain: QQPTYVQALFDFDPQEDGELGFRRGDFIHVMDNSDPNWWKGACHGQTGMFPRNYVTPVNR
modifications: Grb2 SH3C pre-bound to Vav SH3N
Kd: 33.3 µM
